Experimental data from publication PMC7577971.

Biological target: CR3022/S1 complex (one monomer of the spike ectodomain with one bound CR3022 Fab) (SARS-CoV-2 | human) (UniProt P0DTC2)
Test: cryo-EM structure

## CR3022/S1 complex (one monomer of the spike ectodomain with one bound CR3022 Fab) (from UniProt P0DTC2 14-1208)
  stoichiometry N: 2
